In patent US20230129258A1 (Bicycle, published 2023):
Starred links: 1 amine or outer side, 2 acyl side, 3 side chain; linkers in the order of their positions; H or OH if unused. Positions of bridges follow the written chain, without caps; N, C: chain ends. Non-standard residues stand in square brackets, D forms with d. Groups on a side chain read outwards from the residue. Primed or numbered codes have the meaning given here. Chains are numbered I, II in the order given. No end group written: not given here. *: point of attachment. dLys(PYA) = D-lysine Nε-acylated with 4-pentynoic acid, clicked (triazole) to the linker azide, O=C(CCc1cn([*:3])nn1)NCCCC[C@@H](N[*:1])C(=O)[*:2]; TATA = O=C(CC[*:1])N1CN(C(=O)CC[*:2])CN(C(=O)CC[*:3])C1; Biotin = O=C1N[C@H]2[C@H](CS[C@H]2CCCCC(=O)*)N1; 1Nal = N[C@@H](Cc1cccc2ccccc12)C(=O)O; Hyp = O=C(O)[C@@H]1C[C@@H](O)CN1; hArg = N=C(N)NCCCC[C@H](N)C(=O)O; tBuAla = CC(C)(C)C[C@H](N)C(=O)O; PEG12′ = not defined here; Nle = CCCC[C@H](N)C(=O)O

Assays:
[1] = molecular target: T1, CD137 on Jurkat reporter cells (Promega kit CS196005) (UniProt Q07011 24-255, limits assumed); assay: cell-based or functional assay
[2] = molecular target: T1, CD137 on Jurkat reporter cells (Promega …); assay: cell-based or functional assay; remark: listed apart in the source
[3] = molecular target: T2, rat CD137 extracellular domain (rat, UniProt Q4W8J3 24-189); assay: SPR direct binding, captured BCY13582, n = 1
T2 sequence: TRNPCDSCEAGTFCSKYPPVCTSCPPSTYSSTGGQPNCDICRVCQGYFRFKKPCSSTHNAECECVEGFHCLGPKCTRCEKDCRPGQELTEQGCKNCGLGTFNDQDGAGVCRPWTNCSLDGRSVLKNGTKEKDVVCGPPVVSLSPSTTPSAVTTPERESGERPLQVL

[4] = molecular target: T3, mouse CD137 extracellular domain (mouse, UniProt P20334 24-187); assay: SPR direct binding, captured BCY13582, n = 1
T3 construct: extracellular domain
T3 sequence (looked up): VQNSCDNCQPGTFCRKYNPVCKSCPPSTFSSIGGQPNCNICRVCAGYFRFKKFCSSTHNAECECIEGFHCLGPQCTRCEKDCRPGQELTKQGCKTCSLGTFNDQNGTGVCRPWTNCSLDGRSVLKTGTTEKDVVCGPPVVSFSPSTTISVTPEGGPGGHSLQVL

[5] = molecular target: T4, soluble OX40 (UniProt P43489 29-216, limits assumed); assay: SPR, streptavidin captured BCY13582, soluble receptor
T4 construct: also called soluble TNF family receptor OX40
T4 sequence (looked up): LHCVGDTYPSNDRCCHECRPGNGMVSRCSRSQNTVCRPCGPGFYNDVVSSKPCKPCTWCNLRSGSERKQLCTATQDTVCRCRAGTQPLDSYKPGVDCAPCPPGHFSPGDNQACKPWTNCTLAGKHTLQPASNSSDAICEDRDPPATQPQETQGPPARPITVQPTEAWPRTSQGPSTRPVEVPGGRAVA

[6] = molecular target: T5, soluble CD40 (UniProt P25942 21-193, limits assumed); assay: as above
T5 construct: also called soluble TNF family receptor CD40

[7] = molecular target: T6, cyno (NHP) CD137 extracellular domain (cyno (NHP), UniProt A9YYE7 24-186); assay: SPR direct binding, captured BCY13582, soluble CD137 ECD, n = 1
T6 construct: extracellular domain

[8] = molecular target: T7, human CD137 extracellular domain (human, UniProt Q07011 24-186, biotinylated where captured on the streptavidin chip); assay: SPR direct binding, captured BCY13582, soluble CD137 ECD, n = 3
T7 construct: extracellular domain; Section 17 says only 'Recombinant human CD137 (R&D systems)'; also called CD137 (human); Recombinant human CD137 (R&D systems)

[9] = molecular target: T8, GPR39 (human, UniProt O43194); assay: Retrogenix cell microarray, HEK293 cells over-expressing the protein, detection with AlexaFluor647 streptavidin
T8 construct: full-length protein over-expressed in HEK293 cells
T8 sequence (single chain, looked up): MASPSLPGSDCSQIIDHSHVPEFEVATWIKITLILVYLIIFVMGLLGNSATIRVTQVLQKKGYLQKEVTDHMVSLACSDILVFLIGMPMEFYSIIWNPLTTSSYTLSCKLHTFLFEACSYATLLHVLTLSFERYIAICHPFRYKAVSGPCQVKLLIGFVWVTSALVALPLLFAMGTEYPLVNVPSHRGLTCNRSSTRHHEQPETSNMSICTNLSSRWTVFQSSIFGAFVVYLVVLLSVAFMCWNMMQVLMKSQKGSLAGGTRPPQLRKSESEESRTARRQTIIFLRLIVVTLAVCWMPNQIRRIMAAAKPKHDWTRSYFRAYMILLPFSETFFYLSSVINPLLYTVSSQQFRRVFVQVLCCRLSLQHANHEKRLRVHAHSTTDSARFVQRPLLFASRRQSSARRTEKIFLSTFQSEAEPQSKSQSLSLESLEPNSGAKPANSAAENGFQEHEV

[10] = molecular target: T9, EVA1C (human, UniProt P58658); assay: as above
T9 construct: full-length protein over-expressed in HEK293 cells
T9 sequence (single chain, looked up): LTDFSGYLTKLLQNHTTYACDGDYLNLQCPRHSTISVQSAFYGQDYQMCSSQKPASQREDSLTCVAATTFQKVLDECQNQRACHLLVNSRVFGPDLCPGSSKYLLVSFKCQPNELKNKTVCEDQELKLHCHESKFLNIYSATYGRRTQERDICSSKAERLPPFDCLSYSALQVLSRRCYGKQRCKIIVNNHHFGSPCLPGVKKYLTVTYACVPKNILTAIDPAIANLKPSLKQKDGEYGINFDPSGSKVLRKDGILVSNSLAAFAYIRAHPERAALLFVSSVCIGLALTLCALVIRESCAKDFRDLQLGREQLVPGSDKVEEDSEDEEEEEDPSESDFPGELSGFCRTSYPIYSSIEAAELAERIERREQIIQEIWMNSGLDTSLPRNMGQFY

[11] = molecular target: T10, IGFBP1 (human, UniProt P08833); assay: as above
T10 construct: full-length protein over-expressed in HEK293 cells
T10 sequence (single chain, looked up): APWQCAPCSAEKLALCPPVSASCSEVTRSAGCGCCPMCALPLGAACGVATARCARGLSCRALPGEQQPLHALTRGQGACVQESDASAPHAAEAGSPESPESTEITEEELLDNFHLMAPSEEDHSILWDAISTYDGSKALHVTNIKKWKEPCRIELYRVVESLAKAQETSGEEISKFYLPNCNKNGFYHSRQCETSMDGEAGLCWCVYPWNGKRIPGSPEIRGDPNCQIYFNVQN

[12] = molecular target: T11, HMGB2 (human, UniProt P26583); assay: as above
T11 construct: full-length protein over-expressed in HEK293 cells
T11 sequence (single chain, looked up): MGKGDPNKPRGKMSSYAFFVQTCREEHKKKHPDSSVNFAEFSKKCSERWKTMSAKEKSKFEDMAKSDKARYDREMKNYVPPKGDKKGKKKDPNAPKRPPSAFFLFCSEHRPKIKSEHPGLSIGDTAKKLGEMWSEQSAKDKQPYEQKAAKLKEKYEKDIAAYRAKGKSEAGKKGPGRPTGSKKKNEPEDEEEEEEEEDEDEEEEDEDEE

[13] = molecular target: T12, METTL24 (human, UniProt Q5JXM2); assay: as above
T12 construct: full-length protein over-expressed in HEK293 cells
T12 sequence (single chain, looked up): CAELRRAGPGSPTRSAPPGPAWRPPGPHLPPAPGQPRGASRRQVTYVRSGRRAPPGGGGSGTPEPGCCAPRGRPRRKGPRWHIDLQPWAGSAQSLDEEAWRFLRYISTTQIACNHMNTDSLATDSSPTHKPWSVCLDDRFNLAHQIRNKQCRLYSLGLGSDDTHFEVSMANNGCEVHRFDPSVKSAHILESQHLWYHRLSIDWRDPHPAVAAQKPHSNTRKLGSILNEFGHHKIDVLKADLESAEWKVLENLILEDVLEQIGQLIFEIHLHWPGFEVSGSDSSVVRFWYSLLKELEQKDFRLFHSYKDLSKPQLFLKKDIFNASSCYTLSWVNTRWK

[14] = molecular target: T13, APLN (human, UniProt Q9ULZ1); assay: as above
T13 construct: full-length protein over-expressed in HEK293 cells
T13 sequence (single chain, looked up): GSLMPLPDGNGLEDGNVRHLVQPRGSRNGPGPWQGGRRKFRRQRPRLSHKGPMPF

T1 sequence (Q07011 24-255 limits assumed): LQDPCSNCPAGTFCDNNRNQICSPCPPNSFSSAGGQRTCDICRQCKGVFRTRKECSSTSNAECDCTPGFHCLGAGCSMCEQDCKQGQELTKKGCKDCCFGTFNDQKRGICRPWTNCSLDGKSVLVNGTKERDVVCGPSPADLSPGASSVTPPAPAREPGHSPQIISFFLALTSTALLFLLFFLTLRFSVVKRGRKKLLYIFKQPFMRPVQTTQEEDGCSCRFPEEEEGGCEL
T7 sequence (Q07011 24-186): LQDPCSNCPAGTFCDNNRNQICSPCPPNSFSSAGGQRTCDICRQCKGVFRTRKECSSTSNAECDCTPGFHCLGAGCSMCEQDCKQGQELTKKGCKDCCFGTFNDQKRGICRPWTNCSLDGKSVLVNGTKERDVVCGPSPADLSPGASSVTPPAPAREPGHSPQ
T5 sequence (P25942 21-193 limits assumed): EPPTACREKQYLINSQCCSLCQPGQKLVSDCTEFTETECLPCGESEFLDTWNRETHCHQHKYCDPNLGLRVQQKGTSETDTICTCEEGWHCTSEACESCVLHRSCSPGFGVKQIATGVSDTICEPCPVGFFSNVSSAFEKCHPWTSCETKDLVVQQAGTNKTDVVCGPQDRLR
T6 sequence (A9YYE7 entry or part of it): as the sequence (Q07011 24-186) above, with P4L, N19S, R50K, T66I, P67S, F69Y, G75E, V149A counted along it

Arithmetic mean EC50 (nM), HT1376 co-culture [1]: 0.58 nM
Arithmetic mean EC50 (nM), MDA-MB-468 co-culture [1]: 0.34 nM
EC50 (nM), HT1376 co-culture [2]: 0.58 nM
Emax (fold induction over background), HT1376 [2]: 57 fold over background
binding result [3]: no binding
binding result [4]: no binding
binding result [5]: no binding (tested: 100 nM)
binding result [6]: no binding (tested: 100 nM)
Kd [7]: 4.23 nM
Kd [8]: 8.4 nM
binding result [9]: no binding (tested: 1 µM)
binding result [10]: no binding (tested: 1 µM)
binding result [11]: no binding (tested: 1 µM)
binding result [12]: no binding (tested: 1 µM)
binding result [13]: no binding (tested: 1 µM)
binding result [14]: no binding (tested: 1 µM)
B1: BCY13582 (biotinylated BCY11863) (peptide)
peptide 1: CP[1Nal][dD]CM[hArg]DWSTP[Hyp]WC
peptide 2: Ac-C[tBuAla]PE[dLys(PYA)]PYCFADPY[Nle]CA
peptide 3: Ac-C[tBuAla]PE[dLys(PYA)]PYCFADPY[Nle]CK([PEG12′-Biotin])
modifications: linker I:1-I:5-I:15, II:1-II:8-II:15, III:1-III:8-III:15 via TATA; also: linker at chain B 5 at chain C 5 to a chain's N-terminus via N-(acid-PEG3)-N-bis(PEG3-azide)
notes: also called test peptide
